Assay results from doi:10.1101/2025.04.18.649599.
Values belong to the substance of their own block, whether it stands above or below them.

How the values were obtained:
Assay in all cases: photon counting histogram
[1] = target: HaloTag-AtCRY2 (photolyase homology region of cryptochrome 2 from A. thaliana) (A. thaliana)
[2] = target: HaloTag-AtCRY2(W374A) (A. thaliana)
[3] = target: HaloTag-HsCRY2 (human CRY2 photolyase homology region) (human)
[4] = target: HaloTag-VfAuLOV (light-oxygen-voltage (LOV) domain of V. frigida Aurochrome1) (V. frigida)
[5] = target: HaloTag-bZip-VfAuLOV (V. frigida)

Substance: HaloTag-AtCRY2 (photolyase homology region of cryptochrome 2 from A. thaliana) (domain or fragment)
relative brightness (relative to the monomeric standard) [1]: 2 to 4
relative brightness at 750 nM (relative to the monomeric standard) [1]: 3
stoichiometry N [1]: 4

Substance: HaloTag-AtCRY2(W374A) (domain or fragment)
relative brightness (relative to the monomeric standard) [2]: 1.5

Substance: HaloTag-HsCRY2 (human CRY2 photolyase homology region) (domain or fragment)
relative brightness at about 750 nM (relative to the monomeric standard) [3]: 1.6

stoichiometry N [4]: 2
Substance: HaloTag-VfAuLOV (light-oxygen-voltage (LOV) domain of V. frigida Aurochrome1) (domain or fragment)

stoichiometry N [5]: 2
Substance: HaloTag-bZip-VfAuLOV (domain or fragment)
